Three proteins from publication PMC3480499, “Isolation of Reovirus T3D Mutants Capable of Infecting Human Tumor Cells Independent of Junction Adhesion Molecule-A” (PLoS ONE, 2012) can be followed below.

Where a chain is given by its changes, count along the chain named. Numbers in names are those of the source.

One may read the stoichiometry N as a count of units in the complex or per binding partner.

B1: reovirus type 3 Dearing (T3D) spike protein σ1, wild type (natural protein)
chain: MDPRLREEVVRLIIALTSDNGASLSKGLESRVSALEKTSQIHSDTILRITQGLDDANKRIIALEQSRDDLVASVSDAQLAISRLESSIGALQTVVNGLDSSVTQLGARVGQLETGLAELRVDHDNLVARVDTAERNIGSLTTELSTLTLRVTSIQADFESRISTLERTAVTSAGAPLSIRNNRMTMGLNDGLTLSGNNLAIRLPGNTGLNIQNGGLQFRFNTDQFQIVNNNLTLKTTVFDSINSRIGATEQSYVASAVTPLRLNSSTKVLDMLIDSSTLEINSSGQLTVRSTSPNLRYPIADVSGGIGMSPNYRFRQSMWIGIVSYSGSGLNWRVQVNSDIFIVDDYIHICLPAFDGFSIADGGDLSLNFVTGLLPPLLTGDTEPAFHNDVVTYGAQTVAIGLSSGGAPQYMSKNLWVEQWQDGVLRLRVEGGGSITHSNSKWPAMTVSYPRSFT
modifications: [35S]-methionine labelled
notes: a stop codon was introduced behind the S1 ORF so that the Myc-His tag of the vector is absent; also called wt σ1; wt T3D σ1
B2: reovirus T3D spike protein σ1 with the Y313A substitution (natural protein)
chain: B1 chain with Y313A
modifications: [35S]-methionine labelled
notes: Outer capsid (attachment/spike) protein σ1 of mammalian reovirus type 3 Dearing, S1 ORF without tag, with Y313A made by mutation PCR on pDGC-S1delTag; Forms only intermediate trimers (shaft trimerized, head monomeric), no mature trimers; Parent plasmid as for m1; also called σ1-Y313A; S1Y313A
B3: reovirus T3D spike protein σ1 with the Q336R substitution (natural protein)
chain: B1 chain with Q336R
modifications: [35S]-methionine labelled
notes: Outer capsid (attachment/spike) protein σ1 of mammalian reovirus type 3 Dearing, S1 ORF without tag, with Q336R made by mutation PCR on pDGC-S1delTag; Q336R arose spontaneously in the jin-1 and jin-2 viruses; Carries only Q336R, not T193M of jin-1 or G187R of jin-2; Parent plasmid as for m1; also called σ1-Q336R; S1Q336R

The data set deals with the molecule itself. Briefly: in vitro trimerization assay (mild SDS-PAGE at 4°C); [35S]-methionine labelled in vitro transcription-translation products incubated in sample buffer (2% SDS, 2.5% β-mercaptoethanol) 30 min at 37°C (or boiled 5 min to disrupt trimers), run on a 10% SDS-polyacrylamide gel kept at 4°C, autoradiography.
For B1, the “stoichiometry N” value was determined as 3. With B2, the “stoichiometry N” value amounted to 3. Then B3, with 3.
